Laboratory results taken from patent US20250313612A1 (Adimab, published 2025).

Columns and labels:
[1] = biological target: RSV F protein of subtype A (strain A2) on recombinant mKate-RSV (Respiratory syncytial virus subtype A …, UniProt P03420 26-574); assay: cell-based or functional assay
[2] = biological target: RSV F protein of subtype B (18537) on recombinant mKate-RSV (Respiratory syncytial virus subtype B …, UniProt P13843 26-574); assay: cell-based or functional assay
[3] = biological target: T1, RSV F ectodomain stabilized in the postfusion conformation (F ΔFP), subtype B (Respiratory syncytial virus subtype B, UniProt P13843 26-109; P13843 147-524); assay: BLI, IgG on AHQ sensors, 100 nM antigen
T1 construct: extracellular domain; trimer; also called Postfusion subtype B

[4] = biological target: T2, RSV F ectodomain stabilized in the postfusion conformation (F ΔFP), subtype A (Respiratory syncytial virus subtype A, UniProt P03420 26-109; P03420 147-524); assay: BLI, IgG on AHQ sensors, 100 nM antigen
T2 construct: extracellular domain; trimer; also called Postfusion subtype A; Postfusion RSV F

Binder | Neut IC50 (µg/ml) subtype A [1] | Neut IC50 (µg/ml) subtype B [2] | Kd [3] | Kd [4]
ADI-14563 (antibody, V domains shown) VH: QVQLVQSGGGLAQPGGSLRLSCAASGFIFSVYEMDWVRQAPGKGLEWLSYIDITGNSVTYADSVRGRFTISRDNARNSLYLQMDSLRVEDTAVYYCVRDSRGPTTQWLTGYFDFWGQGTTVTVSS VL: DIRMTQSPATLSLSPGERATLSCRASQSVSNYLAWYQQKPGQAPRLLIYDVSNRATGIPARFSGSGSGTDFTLTISSLEPEDFAVYYCQQRRNWPPLTFGGGTKVEVK | > 10 µg/mL | > 10 µg/mL | – | –
ADI-14527 (antibody, V domains shown, IgG; also called Antibody Number 87) VH: QVQLVQSGAELKRPGSSVKVSCKASGVYLTSVAVNWVRQVPGHGFEWMGGILTGFGKVRHAQAFENRATLTADASTNTAYLELSGLQAEDTAAYYCAIIDPQDCTAASCFWVNWLDPWGQGTLVTVSS VL: EIVLTQSPGTLTVSPGERATLSCRASQSVLSSHLAWYQQKPGQAPRLLIYAASSRATDVPDRFSGSGSGTDFTLTISRLEPQDFAVYYCQQYGSSPITFGQGTRLEIK | > 10 µg/mL | > 10 µg/mL | 0.645 nM | 0.889 nM
ADI-14558 (antibody, V domains shown) VH: QVQLVESGGGLIQPGASLRLSCGAYGFSFSSSAMSWVRQAPGKGLEWVSAISDNGGSTYYADSVQGRFTISRDNSKNTLYLQLNRLRAEDTAIYYCAKAYCSDSCHGGYFDYWGQGTLVTVSS VL: EIVLTQSPATLSLSPGDRATLSCRASQSVSSSFAWYQQKPGQAPRLLIYAVSNRATGIPARFSGSGSGTDFTLTISTLEPEDFAVYYCQQRSTWPLTFGPGTKVEIK | > 10 µg/mL | > 10 µg/mL | – | –
ADI-14539 (antibody, V domains shown, IgG; also called Antibody Number 99) VH: QVQLVESGGGVVQPGRSLRLSCAASGFAFRVYDIHWVRQAPGKGLEWVAVAWSDGRDEFYADSVKGRITISRDNSKNTVYLQMSSLRVADTAVYYCARDSGTLTGLPHDAFDVWGQGTTVTVSS VL: DIQLTQSPSTLSASVGDRVTITCRASQSITTRLAWYQQKLGKAPKLLVYKASTLEIGVPSRFSGRGSGTEFTLTISSLQPDDFATYYCHHYNSYSWTFGQGTKVDIK | 0.727 µg/mL | 0.302 µg/mL | 5.71 nM | 0.738 nM
ADI-14535 (antibody, V domains shown, IgG; also called Antibody Number 95) VH: QVQLQQWGPGLVKPSQTLSLTCSVSGASVKIGSNFWTWIRQRPGKGLEWIGAIHDTGTTYYNPSLEPQVIISTDTSQNQFSLRLTSVTAADTAVYYCARGRGYTYGWRYFDYWGQGTLVTVSS VL: SYVLTQPPSVSVSPGQTARITCSGDALPKQYAFWYQHKAGQAPVLVIKKDTERPSGIPERFSGSISGTTATLIISGVQAEDEADYYCQSSDSSGNVVLFGGGTQLTVL | > 10 µg/mL | > 10 µg/mL | 0.238 nM | 0.23 nM
ADI-14529 (antibody, V domains shown, IgG; also called Antibody Number 89) VH: EVQLVESGGGLVKPGGSLRLSCAASGFIFRNAWMSWVRQAPGKGLEWVGRIKRTSEGGSVDYATPVQGRFSISRDDSRNTLYLQMNSLETDDTAVYYCSTGPPYSYFDSSGYSVVDYWGQGTLVTVSS VL: QSVVTQPPSVSGTPGQRVTISCTGSSSNIGTPFDVHWYQQIPETAPKLIISGGFSRPSGVPDRFSGSQSGTSASLAISGLRSEDEGDYYCAAWDDSLSGPVFGGGTKLTVL | 2.38 µg/mL | 0.991 µg/mL | 0.798 nM | 1.71 nM
ADI-14532 (antibody, V domains shown, IgG; also called Antibody Number 92) VH: EVQLVESGGGLVKPGGSLRLSCAASGFIFRNAWMSWVRQAPGKGLEWVGRIKRTSEGGSVDYATPVQGRFSISRDDSRKTLYLQMNSLETDDTAVYYCSTGPPYSYFDSSGYSVVDYWGLGTLVTVSS VL: SYELTQPPSASGTPGQRVTISCSASSSNIGDNYFYWYQQLPGKAPTLLMYGSDQRSSGVPDRFSGSQSGTSASLAISGLRSEDEADYYCAAWDDSLSGPVFGGGTQLTVL | 0.168 µg/mL | 0.208 µg/mL | 0.136 nM | 0.224 nM
ADI-14537 (antibody, V domains shown, IgG; also called Antibody Number 97) VH: EVQLVESGGGLVKPGGSLRLSCAASGFIFRNAWMSWVRQAPGKGLEWVGRIKRTSEGGSVDYATPVQGRFSISRDDSRKTLYLQMNSLETDDTAVYYCSTGPPYSYFDSSGYSVVDYWGLGTLVTVSS VL: QPVLTQPPSASGTPGQRVTISCSASSSNIGDNYFYWYQQLPGKAPTLLMYGSDQRSSGVPDRFSGSQSGTSASLAISGLRSEDEADYYCAAWDDSLSGPVFGGGTKLTVL | 0.272 µg/mL | 0.292 µg/mL | 0.142 nM | 0.211 nM
ADI-14528 (antibody, V domains shown, IgG; also called Antibody Number 88) VH: QVQLVQSGAEVKKPGSSVKVSCKVAGGSFSNYAIAWLRQAPGQGLEWMGGIIPAFNRAMYARKFQDRVTITAYASTTTAYLDITGLRSEDTALYYCARPAGDFGDLKWVRSPFDYWGQGTLVTVSS VL: ETTLTQSPGTLSVSPGERATLSCRASQEVGINLAWYQQKPGQAPRLLIYGASTRATDVPARFSGSGSGTEFTLTISSLQSEDFAVYYCQEYNDWPPQLTFGPGTKVDIK | > 10 µg/mL | 0.705 µg/mL | – | 35.2 nM
ADI-14530 (antibody, V domains shown, IgG; also called Antibody Number 90) VH: QVQLVQSGAEVKKPGSSVKVSCKVVGGSFSNYGIGWVRQAPGQGPEWMGGIIPAFKTAKYAKKFQDRVTITADESSSTAYMEVRGLRPDDTALYYCARPEGDFGDLKWVRSPFDYWGQGTLVTVSS VL: ETTLTQSPATLSVSPGERVTLSCRASQDVSINLAWYQQKPGQAPRLLIYGASTRATDVPARFSGSGSGTDFTLTISSLQSEDFAFYYCQEYNDWPPQLTFGPGTKVEIK | > 10 µg/mL | > 10 µg/mL | 37.6 nM | 47.2 nM
ADI-14536 (antibody, V domains shown, IgG; also called Antibody Number 96) VH: QVQLVQSGGGVVQPGRSLRLSCAASGFSFSSYGMHWVRQAPGKGLEWVAAIFYHEIKDYYADSVNGRFSISRDNSKNTLYLEMYSLKVEDTAVYYCARDSGTLTGLPHDAFDIWGQGTTVTVSS VL: DIQMTQSPSTLSASLGGRVTITCRASQSVTNRLAWYQHKPGKAPNLLIYKASTLEIGVPSRFSGSGSGTEFTLTISSLQPDDFATYYCQQYSSYSWTFGQGTKVEIK | 0.56 µg/mL | 0.696 µg/mL | 0.382 nM | 0.404 nM
ADI-14534 (antibody, V domains shown, IgG; also called Antibody Number 94) VH: EVQLVESGGGVVQPGRSLRLSCAVSGFTFSNFGMHWVRQAPGKGLEWVAAISYDGRKRFQADSVKGRFTISRDNLKNTLNLQMNSLKTEDTAVYYCAKSSRLLDWLYNMDFWGQGTTVTVSS VL: SYVLTQPPSVSVAPGKTARITCGGNILGSSSVHWFQQKAGQAPVLVIYYDSDRPSGIPERFSGSHSGDTATLTISRVEVGDEADYYCQVWDNSNSQGVFGGGTQLTVL | > 10 µg/mL | > 10 µg/mL | 0.93 nM | 1 nM
ADI-14538 (antibody, V domains shown, IgG; also called Antibody Number 98) VH: EVQLVESGGGVVQPGRSLRLSCAVSGFTFSNFGMHWVRQAPGKGLEWVAAISYDGRKTFQADSVKGRFIISRDNLKNTLNLQMNSLKTEDTAVYYCAKSSRFLDWLYNMDFWGQGTTVTVSS VL: SYELTQPPSVSEAPGKTATITCGGIILGTSSVHWFQQKSGQAPVLVIYYDSDRPSGIPERFSGSHSGDTATLTISRVEVGDEADYYCQVWDNSHSQGVFGGGTQLTVL | > 10 µg/mL | > 10 µg/mL | 0.154 nM | 0.35 nM
ADI-14531 (antibody, V domains shown, IgG; also called Antibody Number 91) VH: QVQLVQSGAEVKKPGSSVKVSCKASGVILTSVAVSWVRQAPGKGFEWMGGILPGFNKVRHAQDFENRATHTADASTNTVYMELSGLKSEDTAVYYCAIIDPQDCTRASCFWVNWLAPWGQGTLVTVSS VL: ETTLTQSPGTLTLSPGERATLSCRASQSVPSRNLAWYQQKPGQAPRLIIYAASNRATDIPDRFSGSGSGTDFTLTISRLEPQDFAVYYCQQYETSPITFGQGTKVDIK | > 10 µg/mL | > 10 µg/mL | 23.8 nM | 12.6 nM
ADI-14562 (antibody, V domains shown) VH: EVQLVESGPEVKGPGSSVKVSCEASAATFSNYAISWVRQAPGQGLEWMGGFVPMLGTRNYAQKFKGRVTLTADVSTHTLYLEIGSLRFEDTAVYYCATVAGLGTSYGRYLESWGQGTLVTVSS VL: DIRMTQSPSSVSASLGDRVTITCRASQDISTALAWYQQIPGKAPKLLIYEASSLQSGVPSRFRGSGSETDFALTISSLQPEDFATYYCQQAKSFPYTFGQGTKVEIK | > 10 µg/mL | 10.5 µg/mL | – | –
ADI-14551 (antibody, V domains shown, IgG) VH: QVQLQESGPGLVKPSETLSLTCSVSGGSIKRGAYFWTWIRQRPGKGLEWIGSMHDSGDYYNPSLKTRVTILGDTTKNHFTLKLTSVTVADTALYYCARGRGYSYGWRFFDNWGQGTLVTVSS VL: NFMLTQPPSVSVSPGHSTRITCSGDALPKQYAYWYQQKPGQAPVLIMSKDSERPSGIPERFTGSSSGTTVTLTISGVQAEDEADYYCQSGDTSGSYVVFGGGTKVTVL | – | – | 0.195 nM | 0.207 nM
ADI-14526 (antibody, V domains shown, IgG; also called Antibody Number 86) VH: EVQLVESGPGLVRPSQTLSIKCSVSGGSINRGAYFWTWIRQRPGKGLEWIGSIHDTGSYYNPSLKTRVSISGDTSKNLFTLELTSLTAADTAVYYCARGRGYSYGWRYFDSWGQGTLVTVSS VL: SYVLTQPPSVSVSPGQTARITCSGDAFPRQYSYWYQQKAGQPPVLVILKDSERPSGIPARFSGSTSGTTVTLTITGVQAEDEADYYCQSSDSSGNYVVFGGGTKLTVL | 2.36 µg/mL | 9.67 µg/mL | 0.342 nM | 0.346 nM
